This test has as its target human C4b binding protein (C4BP) (human) (UniProt P04003). Nature of the test: BLI; Octet RED96; purified C4BP immobilised on amine-reactive (AR2G) sensor; P5 loop peptides 1.25-50 µM in PBS; 30°C; 1:1 binding fit.

We go through two substances from article PMC8428749.

Chain of UniProt P04003 (P04003 49-597, chain 1 of 2): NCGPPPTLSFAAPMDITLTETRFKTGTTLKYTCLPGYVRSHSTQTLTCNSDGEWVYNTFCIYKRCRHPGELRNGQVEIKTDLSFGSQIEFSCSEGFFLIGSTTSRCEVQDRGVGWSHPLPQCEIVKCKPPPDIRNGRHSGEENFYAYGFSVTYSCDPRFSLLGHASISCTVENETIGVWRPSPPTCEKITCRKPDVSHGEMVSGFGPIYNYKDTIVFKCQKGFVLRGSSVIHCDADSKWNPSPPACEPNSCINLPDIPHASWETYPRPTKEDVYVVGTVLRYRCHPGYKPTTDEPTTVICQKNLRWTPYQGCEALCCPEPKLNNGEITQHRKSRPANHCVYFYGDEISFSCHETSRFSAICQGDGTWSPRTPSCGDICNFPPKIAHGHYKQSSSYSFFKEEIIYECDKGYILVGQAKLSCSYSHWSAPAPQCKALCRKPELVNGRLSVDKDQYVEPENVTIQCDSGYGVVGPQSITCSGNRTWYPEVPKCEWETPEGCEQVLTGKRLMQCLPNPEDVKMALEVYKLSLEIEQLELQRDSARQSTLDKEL
Chain of UniProt P04003 (P20851 18-252, chain 2 of 2, further chain): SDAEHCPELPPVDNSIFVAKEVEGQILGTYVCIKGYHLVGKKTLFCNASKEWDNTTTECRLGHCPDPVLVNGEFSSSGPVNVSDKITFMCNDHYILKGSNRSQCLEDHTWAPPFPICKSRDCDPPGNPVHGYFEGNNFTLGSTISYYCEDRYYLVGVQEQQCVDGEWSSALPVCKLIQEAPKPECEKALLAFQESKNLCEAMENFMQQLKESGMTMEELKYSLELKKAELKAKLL

“synthetic peptide of outer surface loop 2 of P5 from NTHi 3655” came in with a Kd of 10 µM.

“synthetic peptide of outer surface loop 2 of P5 from NTHi KR271” yielded a Kd of 73 µM.
